{"source": "paper PMC3686747", "key": {"[1]": {"molecular_target": "heat shock protein 60 (Hsp60), bovine brain (bovine (endogenous in bovine brain)) (UniProt P31081)", "sequence (P31081 27-573)": "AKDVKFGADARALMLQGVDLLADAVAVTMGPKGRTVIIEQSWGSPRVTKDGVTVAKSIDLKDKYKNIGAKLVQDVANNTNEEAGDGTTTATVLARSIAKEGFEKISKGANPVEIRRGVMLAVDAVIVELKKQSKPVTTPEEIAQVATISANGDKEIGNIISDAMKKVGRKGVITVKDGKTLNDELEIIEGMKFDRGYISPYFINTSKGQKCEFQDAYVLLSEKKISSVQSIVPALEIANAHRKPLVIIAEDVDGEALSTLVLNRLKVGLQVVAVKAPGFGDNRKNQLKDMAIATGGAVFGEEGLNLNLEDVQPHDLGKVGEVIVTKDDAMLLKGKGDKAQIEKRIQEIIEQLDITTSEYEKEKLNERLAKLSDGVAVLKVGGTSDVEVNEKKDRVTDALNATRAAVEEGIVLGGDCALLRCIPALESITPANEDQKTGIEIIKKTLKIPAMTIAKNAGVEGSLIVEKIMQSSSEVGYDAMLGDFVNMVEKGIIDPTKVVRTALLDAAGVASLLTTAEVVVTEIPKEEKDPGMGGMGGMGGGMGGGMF", "test": "co-IP; Mono S active fraction from bovine brain, anti-Hsp60 antibody; N-SMase activity recovered in the immunoprecipitates after resuspension in IP buffer (data not shown)"}, "[2]": {"molecular_target": "heat shock protein 60 (Hsp60), bovine brain (bovine (endogenous in bovine brain)) (UniProt P31081)", "test": "co-IP; active N-SMase fraction (Mono S or Superose 12) from bovine brain, holding both proteins together; anti-Hsp60 or anti-N-SMase2 antibody on Protein A Sepharose, 4 h at 4°C; N-SMase activity of supernatants and immunoprecipitates, immunoblot; with indicated concentrations of Triton X-100 in one panel"}}}
{"substance": "neutral sphingomyelinase 2 (N-SMase2), bovine brain, purified as N-SMase ε (enzyme)", "values": [{"measurement": "percent of total N-SMase activity recovered in the anti-Hsp60 immunoprecipitates", "setting": "[1]", "result": 10, "unit": "%"}, {"measurement": "percent of N-SMase activity precipitated by anti-Hsp60 antibody", "setting": "[2]", "result": 20, "unit": "%"}]}
